System: COc1cc(/C=C/C(=O)O)ccc1O
Experiment: purified protein
Conditions: control without ultrafiltrate activator, general assay 0.1 M sodium phosphate pH 6.0, 25°C

Work on “CgPAD (phenolic acid decarboxylase) (Meyerozyma guilliermondii)” yielded a Km of 5.31 mM and a kcat of 89.7 s⁻¹.

— PMC3402150, “An endogenous factor enhances ferulic acid decarboxylation catalyzed by phenolic acid decarboxylase from Candida guilliermondii” (AMB Express, 2012)
